Source: US20140120543A1 (INSTITUTE GUSTAVE ROUSSY, published 2014)

T1: DNA repair endonuclease XPF (human, UniProt Q92889 1-916)
T1 construct: Endogenous protein of the human A549 cell line, inside fixed cells; also called encoded by the ERCC4 gene
T1 sequence: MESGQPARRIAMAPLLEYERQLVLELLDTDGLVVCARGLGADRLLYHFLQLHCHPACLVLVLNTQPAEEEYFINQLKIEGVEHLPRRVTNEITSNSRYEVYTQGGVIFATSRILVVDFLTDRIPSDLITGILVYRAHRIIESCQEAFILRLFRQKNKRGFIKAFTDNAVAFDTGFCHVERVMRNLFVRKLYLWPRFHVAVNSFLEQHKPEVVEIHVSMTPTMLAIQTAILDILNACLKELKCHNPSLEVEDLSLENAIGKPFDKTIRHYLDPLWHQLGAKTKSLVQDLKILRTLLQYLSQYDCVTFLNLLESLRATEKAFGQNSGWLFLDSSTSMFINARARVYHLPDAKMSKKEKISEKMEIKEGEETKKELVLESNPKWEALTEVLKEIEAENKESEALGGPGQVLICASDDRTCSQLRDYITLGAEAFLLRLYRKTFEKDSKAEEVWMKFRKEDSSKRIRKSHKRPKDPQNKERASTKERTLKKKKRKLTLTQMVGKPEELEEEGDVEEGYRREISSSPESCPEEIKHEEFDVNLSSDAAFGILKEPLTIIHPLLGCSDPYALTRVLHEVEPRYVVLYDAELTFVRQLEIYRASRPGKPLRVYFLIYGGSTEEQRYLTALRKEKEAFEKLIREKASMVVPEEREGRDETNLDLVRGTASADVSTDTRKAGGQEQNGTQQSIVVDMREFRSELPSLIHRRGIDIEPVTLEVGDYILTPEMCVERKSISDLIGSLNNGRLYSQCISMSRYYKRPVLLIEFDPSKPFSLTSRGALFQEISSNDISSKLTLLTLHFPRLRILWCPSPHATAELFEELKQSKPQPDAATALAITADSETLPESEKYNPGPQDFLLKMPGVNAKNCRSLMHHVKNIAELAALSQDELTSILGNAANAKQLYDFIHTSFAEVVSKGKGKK

T2: Fanconi anemia Group G protein FANC G (human, UniProt O15287 1-622)
T2 construct: Endogenous protein of the human A549 cell line, inside fixed cells; also called Fanconi anemia complementation group G
T2 sequence: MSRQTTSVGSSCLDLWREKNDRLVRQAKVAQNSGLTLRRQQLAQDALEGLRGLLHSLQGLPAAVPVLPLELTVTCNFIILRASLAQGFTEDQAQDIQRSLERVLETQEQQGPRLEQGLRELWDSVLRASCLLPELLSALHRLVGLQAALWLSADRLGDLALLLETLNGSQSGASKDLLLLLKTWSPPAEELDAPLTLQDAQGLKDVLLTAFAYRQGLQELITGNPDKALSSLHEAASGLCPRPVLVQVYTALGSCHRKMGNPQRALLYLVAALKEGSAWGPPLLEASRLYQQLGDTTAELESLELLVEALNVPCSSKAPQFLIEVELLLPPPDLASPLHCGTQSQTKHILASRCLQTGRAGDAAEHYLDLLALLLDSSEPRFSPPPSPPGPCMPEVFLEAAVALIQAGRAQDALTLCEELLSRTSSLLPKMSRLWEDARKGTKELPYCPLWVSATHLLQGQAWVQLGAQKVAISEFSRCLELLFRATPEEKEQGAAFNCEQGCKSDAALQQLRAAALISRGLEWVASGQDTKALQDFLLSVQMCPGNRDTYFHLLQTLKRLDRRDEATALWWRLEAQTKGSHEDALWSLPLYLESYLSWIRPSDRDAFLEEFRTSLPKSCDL

T3: kinesin Eg5 (human, UniProt P52732 1-1056)
T3 construct: Endogenous protein of the human A549 cell line, inside fixed cells; also called encoded by the KIF11 gene
T3 sequence: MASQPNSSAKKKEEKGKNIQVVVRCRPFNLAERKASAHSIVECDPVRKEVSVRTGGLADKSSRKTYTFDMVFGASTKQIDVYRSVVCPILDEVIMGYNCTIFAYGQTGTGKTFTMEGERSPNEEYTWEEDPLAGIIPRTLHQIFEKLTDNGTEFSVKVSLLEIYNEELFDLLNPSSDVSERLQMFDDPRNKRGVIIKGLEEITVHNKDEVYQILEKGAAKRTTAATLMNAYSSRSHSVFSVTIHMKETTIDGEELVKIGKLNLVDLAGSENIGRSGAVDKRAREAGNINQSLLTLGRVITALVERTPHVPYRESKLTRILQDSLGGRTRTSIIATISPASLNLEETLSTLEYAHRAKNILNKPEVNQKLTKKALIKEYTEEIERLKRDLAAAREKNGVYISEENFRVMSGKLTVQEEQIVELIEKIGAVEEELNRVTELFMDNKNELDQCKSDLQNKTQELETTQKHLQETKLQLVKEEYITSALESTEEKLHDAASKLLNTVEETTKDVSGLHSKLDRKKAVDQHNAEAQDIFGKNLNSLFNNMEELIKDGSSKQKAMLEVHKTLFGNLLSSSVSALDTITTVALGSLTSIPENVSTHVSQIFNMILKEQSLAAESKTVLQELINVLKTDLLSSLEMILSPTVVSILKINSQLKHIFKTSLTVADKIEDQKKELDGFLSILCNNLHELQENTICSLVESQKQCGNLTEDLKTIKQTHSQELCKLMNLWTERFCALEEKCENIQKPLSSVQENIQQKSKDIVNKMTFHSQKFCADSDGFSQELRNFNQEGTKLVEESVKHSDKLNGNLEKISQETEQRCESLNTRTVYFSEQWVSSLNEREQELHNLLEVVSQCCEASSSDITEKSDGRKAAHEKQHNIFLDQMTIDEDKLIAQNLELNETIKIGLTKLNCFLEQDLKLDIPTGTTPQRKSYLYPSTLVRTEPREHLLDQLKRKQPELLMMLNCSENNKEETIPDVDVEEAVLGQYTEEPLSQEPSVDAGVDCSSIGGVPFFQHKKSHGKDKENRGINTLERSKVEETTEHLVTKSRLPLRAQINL

T4: protein TRF2 (telomeric repeat-binding factor 2) (human, UniProt Q15554 1-542)
T4 construct: Endogenous protein of the human A549 cell line, inside fixed cells; also called encoded by the TERF2 gene
T4 sequence: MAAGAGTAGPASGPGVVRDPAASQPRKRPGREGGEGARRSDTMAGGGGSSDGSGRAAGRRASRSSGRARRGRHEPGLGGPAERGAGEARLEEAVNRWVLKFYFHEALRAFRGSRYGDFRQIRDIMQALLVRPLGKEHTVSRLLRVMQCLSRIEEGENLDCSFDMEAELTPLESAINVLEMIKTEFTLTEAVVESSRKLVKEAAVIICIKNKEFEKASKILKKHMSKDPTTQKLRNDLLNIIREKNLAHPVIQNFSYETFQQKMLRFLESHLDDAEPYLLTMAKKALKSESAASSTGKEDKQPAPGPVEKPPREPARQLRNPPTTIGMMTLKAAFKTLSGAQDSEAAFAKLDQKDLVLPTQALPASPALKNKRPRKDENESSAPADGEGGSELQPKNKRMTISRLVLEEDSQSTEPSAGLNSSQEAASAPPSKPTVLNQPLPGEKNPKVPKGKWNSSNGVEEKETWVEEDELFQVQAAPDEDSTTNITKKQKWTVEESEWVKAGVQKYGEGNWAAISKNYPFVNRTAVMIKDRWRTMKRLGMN

B1: ERCC1-201 isoform (other)
chain: MDPGKDKEGVPQPSGPPARKKFVIPLDEDEVPPGVAKPLFRSTQSLPTVDTSAQAAPQTYAEYAISQPLEGAGATCPTGSEPLAGETPNQALKPGAKSNSIIVSPRQRGNPVLKFVRNVPWEFGDVIPDYVLGQSTCALFLSLRYHNLHPDYIHGRLQSLGKNFALRVLLVQVDVKDPQQALKELAKMCILADCTLILAWSPEEAGRYLETYKAYEQKPADLLMEKLEQDFVSRVTECLTTVKSVNKTDSQTLLTTFGSLEQLIAASREDLALCPGLGPQKVRALGKNPRSWGKERAPNKHNLRPQSFKVKKEPKTRHSGFRL
notes: Re-expressed in ERCC1-deficient A549 clone 216; Detected inside fixed, permeabilised cells by PLA; also called isoform 201
B2: ERCC1-202 isoform (isoform 202 of the ERCC1 protein) (other)
chain: MDPGKDKEGVPQPSGPPARKKFVIPLDEDEVPPGVAKPLFRSTQSLPTVDTSAQAAPQTYAEYAISQPLEGAGATCPTGSEPLAGETPNQALKPGAKSNSIIVSPRQRGNPVLKFVRNVPWEFGDVIPDYVLGQSTCALFLSLRYHNLHPDYIHGRLQSLGKNFALRVLLVQVDVKDPQQALKELAKMCILADCTLILAWSPEEAGRYLETYKAYEQKPADLLMEKLEQDFVSRVTECLTTVKSVNKTDSQTLLTTFGSLEQLIAASREDLALCPGLGPQKARRLFDVLHEPFLKVP
notes: Re-expressed in ERCC1-deficient A549 clone 216; Detected inside fixed, permeabilised cells by PLA, not on the cell surface
B3: ERCC1-203 isoform (other)
chain: MDPGKDKEGVPQPSGPPARKKFVIPLDEDEVPPGVAKPLFRSTQSLPTVDTSAQAAPQTYAEYAISQPLEGAGATCPTGSEPLAGETPNQALKPGAKSNSIIVSPRQRGNPVLKFVRNVPWEFGDVIPDYVLGQSTCALFLSLRYHNLHPDYIHGRLQSLGKNFALRVLLVQVDVKDPQQALKELAKMCILADCTLILAWSPEEAGRYLETYKAYEQKPADLLMEKLEQDFVSRSLEQLIAASREDLALCPGLGPQKARRLFDVLHEPFLKVP
notes: Re-expressed in ERCC1-deficient A549 clone 216; Detected inside fixed, permeabilised cells by PLA; also called isoform 203
B4: ERCC1-204 isoform (other)
chain: MDPGKDKEGVPQPSGPPARKKFVIPLDEDEVPPGVRGNPVLKFVRNVPWEFGDVIPDYVLGQSTCALFLSLRYHNLHPDYIHGRLQSLGKNFALRVLLVQVDVKDPQQALKELAKMCILADCTLILAWSPEEAGRYLETYKAYEQKPADLLMEKLEQDFVSRVTECLTTVKSVNKTDSQTLLTTFGSLEQLIAASREDLALCPGLGPQKARRLFDVLHEPFLKVP
notes: Re-expressed in ERCC1-deficient A549 clone 216; Detected inside fixed, permeabilised cells by PLA; also called isoform 204

Tests used:
[1] = biological target: T1, DNA repair endonuclease XPF; assay: proximity ligation assay (Duolink) in ERCC1-deficient A549 cells re-expressing one isoform
Protocol: (§1) Protein interactions were studied using the Duolink II proximity ligation assays (PLA) kit (Olink, Uppsala, Sweden). Coverslips were processed according to the manufacturer's instructions. In brief, the cells were fixed with methanol, permeabilized with triton, stained with the primary antibodies, and then incubated with the secondary oligonucleotide-linked antibodies. The oligonucleotides were hybridized, ligated, amplified, and detected using a fluorescent probe.
Using proximity ligation assays (PLA-Duolink) technology, we investigated the binding ability of ERCC1 isoforms with ERCC1 interacting proteins.

[2] = biological target: T2, Fanconi anemia Group G protein FANC G; assay: proximity ligation assay (Duolink), ERCC1 detected with FL297 antibody
Protocol: (§2) ERCC1 was detected using FL297 antibody.
as §1

[3] = biological target: T3, kinesin Eg5; assay: as above
Protocol: as §2, §1

[4] = biological target: T4, protein TRF2 (telomeric repeat-binding …); assay: as above
Protocol: as §2, §1

Binder	binding result [1]	binding result [2]	binding result [3]	binding result [4]
B1	no binding	–	–	–
B2	–	binds	binds	binds
B3	no binding	–	–	–
B4	no binding	–	–	–
